Data published in patent US20030092095.
Substitutions are numbered along the chain they refer to. In names and notes the source's numbering stands.

T1: GST-RIZ332 (GST fusion of human RIZ1 residues 1-332)
T1 chain: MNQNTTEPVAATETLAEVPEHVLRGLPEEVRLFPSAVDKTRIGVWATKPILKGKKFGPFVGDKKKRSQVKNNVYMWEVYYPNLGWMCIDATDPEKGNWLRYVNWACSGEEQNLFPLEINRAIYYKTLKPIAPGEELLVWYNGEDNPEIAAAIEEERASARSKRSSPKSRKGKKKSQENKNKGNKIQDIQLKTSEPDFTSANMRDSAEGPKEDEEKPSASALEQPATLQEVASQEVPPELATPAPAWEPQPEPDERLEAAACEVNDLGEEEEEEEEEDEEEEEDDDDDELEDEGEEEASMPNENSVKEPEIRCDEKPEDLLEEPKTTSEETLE

B1: GSTRIZPBD, GST-hRIZ1(1514-1680) (GST fusion of the PR-binding domain of human RIZ1) (protein)
chain: HRRRTADAEIKMQSMQTPLGKTRARSSGPTQVPLPSSSFRSKQNVKFAASVKSKKPSSSSLRNSSPIRMAKITHVEGKKPKAVAKNHSAQLSSKTSRSLHVRVQKSKAVLQSKSTLASKKRTDRFNIKSRERSGGPVTRSLQLAAAADLSENKREDGSAKQELKDFS
B2: GST-RIZ200 (GST fusion of human RIZ1 residues 1-200) (protein)
chain: MNQNTTEPVAATETLAEVPEHVLRGLPEEVRLFPSAVDKTRIGVWATKPILKGKKFGPFVGDKKKRSQVKNNVYMWEVYYPNLGWMCIDATDPEKGNWLRYVNWACSGEEQNLFPLEINRAIYYKTLKPIAPGEELLVWYNGEDNPEIAAAIEEERASARSKRSSPKSRKGKKKSQENKNKGNKIQDIQLKTSEPDFTSA
B3: GST-RIZ200 point mutant A159V (protein)
chain: B2 chain with A159V
B4: GST-RIZ200 point mutant C106Y (protein)
chain: B2 chain with C106Y
B5: GST-RIZ200 point mutant I188V (protein)
chain: B2 chain with I188V
B6: GST-RIZ332 (GST fusion of human RIZ1 residues 1-332) (protein)
chain: T1 chain
B7: GST-RIZ161 (GST fusion of human RIZ1 residues 1-161) (protein)
chain: MNQNTTEPVAATETLAEVPEHVLRGLPEEVRLFPSAVDKTRIGVWATKPILKGKKFGPFVGDKKKRSQVKNNVYMWEVYYPNLGWMCIDATDPEKGNWLRYVNWACSGEEQNLFPLEINRAIYYKTLKPIAPGEELLVWYNGEDNPEIAAAIEEERASARS
B8: full length RIZ1 protein expressed in mammalian cells from adenovirus AdRIZ1 (protein)
chain: MNQNTTEPVAATETLAEVPEHVLRGLPEEVRLFPSAVDKTRIGVWATKPILKGKKFGPFVGDKKKRSQVKNNVYMWEVYYPNLGWMCIDATDPEKGNWLRYVNWACSGEEQNLFPLEINRAIYYKTLKPIAPGEELLVWYNGEDNPEIAAAIEEERASARSKRSSPKSRKGKKKSQENKNKGNKIQDIQLKTSEPDFTSANMRDSAEGPKEDEEKPSASALEQPATLQEVASQEVPPELATPAPAWEPQPEPDERLEAAACEVNDLGEEEEEEEEEDEEEEEDDDDDELEDEGEEEASMPNENSVKEPEIRCDEKPEDLLEEPKTTSEETLEDCSEVTPAMQIPRTKEEANGDVFETFMFPCQHCERKFTTKQGLERHMHIHISTVNHAFKCKYCGKAFGTQINRRRHERRHEAGLKRKPSQTLQPSEDLADGKASGENVASKDDSSPPSLGPDCLIMNSEKASQDTINSSVVEENGEVKELHPCKYCKKVFGTHTNMRRHQRRVHERHLIPKGVRRKGGLEEPQPPAEQAQATQNVYVPSTEPEEEGEADDVYIMDISSNISENLNYYIDGKIQTNNNTSNCDVIEMESASADLYGINCLLTPVTVEITQNIKTTQVPVTEDLPKEPLGSTNSEAKKRRTASPPALPKIKAETDSDPMVPSCSLSLPLSISTTEAVSFHKEKSVYLSSKLKQLLQTQDKLTPAGISATEIAKLGPVCVSAPASMLPVTSSRFKRRTSSPPSSPQHSPALRDFGKPSDGKAAWTDAGLTSKKSKLESHSDSPAWSLSGRDERETVSPPCFDEYKMSKEWTASSAFSSVCNQQPLDLSSGVKQKAEGTGKTPVQWESVLDLSVHKKHCSDSEGKEFKESHSVQPTCSAVKKRKPTTCMLQKVLLNEYNGIDLPVENPADGTRSPSPCKSLEAQPDPDLGPGSGFPAPTVESTPDVCPSSPALQTPSLSSGQLPPLLIPTDPSSPPPCPPVLTVATPPPPLLPTVPLPAPSSSASPHPCPSPLSNATAQSPLPILSPTVSPSPSPIPPVEPLMSAASPGPPTLSSSSSSSSSSSSFSSSSSSSSPSPPPLSAISSVVSSGDNLEASLPMISFKQEELENEGLKPREEPQSAAEQDVVVQETFNKNFVCNVCESPFLSIKDLTKHLSIHAEEWPFKCEFCVQLFKDKTDLSEHRFLLHGVGNIFVCSVCKKEFAFLCNLQQHQRDLHPDKVCTHHEFESGTLRPQNFTDPSKAHVEHMQSLPEDPLETSKEEEELNDSSEELYTTIKIMASGIKTKDPDVRLGLNQHYPSFKPPPFQYHHRNPMGIGVTATNFTTHNIPQTFTTAIRCTKCGKGVDNMPELHKHILACASASDKKRYTPKKNPVPLKQTVQPKNGVVVLDNSGKNAFRRMGQPKRLNFSVELSKMSSNKLKLNALKKKNQLVQKAILQKNKSAKQKADLKNACESSSHICPYCNREFTYIGSLNKHAAFSCPKKPLSPPKKKVSHSSKKGGHSSPASSDKNSNSNHRRRTADAEIKMQSMQTPLGKTRARSSGPTQVPLPSSSFRSKQNVKFAASVKSKKPSSSSLRNSSPIRMAKITHVEGKKPKAVAKNHSAQLSSKTSRSLHVRVQKSKAVLQSKSTLASKKRTDRFNIKSRERSGGPVTRSLQLAAAADLSENKREDGSAKQELKDFSYSLRLASRCSPPAAPYITRQYRKVKAPAAAQFQGPFFKE

Key:
[1] = target: T1, GST-RIZ332 (GST fusion of human RIZ1 …)
[2] = target: histone H4 (free histones acid-extracted from human cancer cells A549 or U2OS), P62805
[3] = target: H3 N terminus 1-20 residue peptide (non-acetylated), P68431
[4] = target: H3 N terminus 1-20 residue peptide acetylated on K9 and K14, P68431
[5] = target: histone H1 (free histones acid-extracted from human cancer cells A549 or U2OS), P07305
Chain of histone H1 (free histones acid-extracted from human cancer cells A549 or U2OS), P07305 (P07305 whole entry, looked up): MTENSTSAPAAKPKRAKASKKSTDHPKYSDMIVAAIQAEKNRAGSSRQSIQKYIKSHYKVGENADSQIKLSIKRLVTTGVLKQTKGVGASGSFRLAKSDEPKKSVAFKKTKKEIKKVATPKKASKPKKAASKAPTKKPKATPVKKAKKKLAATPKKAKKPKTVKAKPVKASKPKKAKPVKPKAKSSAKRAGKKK

[6] = target: histone H3 (free histones acid-extracted from human cancer cells A549 or U2OS), P68431

Row | Protein | histone methyltransferase activity in vitro (3H-SAM, SDS-PAGE, fluorography) [2] | also measured
1 | B1 | GSTRIZPBD protein alone showed HMT activity, specifically on H4 | histone methyltransferase activity in vitro with both proteins present [1]: A synergistic enhancement (more than additive effects) of HMT activity was observed when GSTRIZ322 and GSTRIZPBD were both present in HMT reactions
2 | B2 | Specific labeling of histone H4 was observed in the presence of purified GST product consisting of residues 1-200 of RIZ1 | –
3 | B3 | missense mutations found in tumors, C106Y, I188V, and A159V, abolished HMT activity | –
4 | B4 | missense mutations found in tumors, C106Y, I188V, and A159V, abolished HMT activity | –
5 | B5 | missense mutations found in tumors, C106Y, I188V, and A159V, abolished HMT activity | –
6 | B6 | A GST fusion protein expressing the N-terminal 332-residue peptide showed similar activities to the N-terminal 200-residue peptide in methylating H4 | –
7 | B7 | GST alone or a protein consisting of residues 1-161 lacked HMT activity | –
8 | B8 | – | in vitro peptide methylation by RIZ1, then HPLC purification and sequencing (H1 peptide (aa 15-37)): A H1 peptide (aa 15-37) was methylated by RIZ1 in vitro ... lysine 25 was methylated by RIZ1; in vitro peptide methylation by immunoprecipitated RIZ1, then peptide sequencing [3]: A peptide consisting the N-terminal 1-20 residues of H3 was indeed methylated in vitro by immunoprecipitated RIZ1 protein ... A single radioactive peak at lysine 9 was observed; in vitro peptide methylation by immunoprecipitated RIZ1 [4]: a peptide containing acetylated K9 and K14 was not methylated; histone methyltransferase activity of RIZ1 immunoprecipitates on free histones [5]: Immunoprecipitated products by RIZ1 serum from RIZ1-expressing extracts caused methylation of H1, H3, and H4; histone methyltransferase activity of RIZ1 immunoprecipitates on free histones [6]: Immunoprecipitated products by RIZ1 serum from RIZ1-expressing extracts caused methylation of H1, H3, and H4; histone methyltransferase activity of RIZ1 immunoprecipitates on free histones [2]: Immunoprecipitated products by RIZ1 serum from RIZ1-expressing extracts caused methylation of H1, H3, and H4
